Experimental data taken from publication PMC4726260, “Combined ligand-observe ^19F and protein-observe ^15N,^1H-HSQC NMR suggests phenylalanine as the key Δ-somatostatin residue recognized by human protein disulfide isomerase” (Scientific Reports, 2016).
pKd: −log10 of the molar value.

Experiments:
Experiment in all cases: NMR titration; ligand-observed 19F 1D; 0.15 mM fluorinated peptide constant, 15N b'x titrated (ratios 1:4 to 2.5:1); 310 K; 20 mM sodium phosphate pH 7.0, 50 mM NaCl, 5% D6-DMSO, 5% 2H2O, 0.05% sodium azide
[1] = target: F1,2,3 Δ-som
[2] = target: F1 Δ-som
[3] = target: F3 Δ-som
[4] = target: F2 Δ-som

human protein disulphide isomerase (hPDI) fragment b'x (domain or fragment)
KD tracked on the F1 (Phe6) 19F resonance [1]: 108 µM
KD tracked on the F2 (Phe7) 19F resonance [1]: 33 µM
KD tracked on the F3 (Phe11) 19F resonance [1]: 45 µM
pKd [1]: 4.21
pKd [2]: 3.96
pKd [3]: 4.01
pKd [4]: 4.57
